This note sets out measurements from US20050037969A1 (ARBOR VITA, published 2005).

Ends that are not written are not given here. * marks the point of attachment. Biotin = O=C1N[C@H]2[C@H](CS[C@H]2CCCCC(=O)*)N1

Test [1] deals with T1, GST-DLG5 (p-dlg) PDZ domain fusion protein (Human, UniProt Q8TDM6 1343-1583).
T1 construct: also called Human discs large protein p-dlg; not shown: glutathione S-transferase encoded by vector pGEX-3X (Pharmacia)
T1 sequence: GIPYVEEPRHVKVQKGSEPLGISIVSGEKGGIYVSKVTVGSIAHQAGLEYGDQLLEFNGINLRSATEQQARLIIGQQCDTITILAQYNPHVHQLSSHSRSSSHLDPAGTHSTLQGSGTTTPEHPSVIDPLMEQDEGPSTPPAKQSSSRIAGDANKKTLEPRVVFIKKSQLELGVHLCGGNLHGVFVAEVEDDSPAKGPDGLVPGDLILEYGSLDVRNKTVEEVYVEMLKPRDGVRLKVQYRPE
In words: A/G assays.

Test [2] has as its target T2, GST-PSD95 fusion protein (PDZ domains 1-3) (human, UniProt P31016 56-395 (rat entry)).
T2 construct: also called human post-synaptic density protein 95; not shown: glutathione S-transferase encoded by vector pGEX-3X (Pharmacia)
In words: A/G assays.

In test [3] the target is T3, GST-41.8 kD protein (KIAA0751) PDZ domain fusion protein (Mus musculus (Mouse), UniProt Q9EQZ7 682-763).
T3 construct: also called 41 kd; hypoth; not shown: glutathione S-transferase encoded by vector pGEX-3X (Pharmacia)
T3 sequence: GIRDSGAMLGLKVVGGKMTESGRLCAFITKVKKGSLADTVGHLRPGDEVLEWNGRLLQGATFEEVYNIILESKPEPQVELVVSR
In words: A/G plate assays, Table 2 matrix.

Test [4] deals with T2, GST-PSD95 fusion protein (PDZ domains …). In words: G assay: biotinylated peptide on plate-bound GST-PDZ fusion, OD 450 nm.
The target of test [5] is T3, GST-41.8 kD protein (KIAA0751) PDZ …. As to the kind of experiment: G assay: biotinylated peptide on plate-bound GST-PDZ fusion, OD 450 nm; no GST-alone bar on the sheet.
The target is the same in test [6]. In words: A/G assays.
Test [7] has as its target T4, KIAA0807 (PDZ domain)-GST fusion protein (human, UniProt Q6P0Q8 1104-1192).
T4 construct: also called K807; KIAA807; not shown: glutathione S-transferase encoded by vector pGEX-3X (Pharmacia)
T4 sequence: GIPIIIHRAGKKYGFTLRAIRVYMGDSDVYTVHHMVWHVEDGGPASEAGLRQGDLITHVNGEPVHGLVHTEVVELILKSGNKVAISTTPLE
As to the kind of experiment: A/G plate assays, Table 2 matrix.

Test [8] addresses T2, GST-PSD95 fusion protein (PDZ domains …). As to the kind of experiment: A/G plate assays, Table 2 matrix.
Test [9] shares this target. In words: G assay: biotinylated peptide on plate-bound GST-PDZ fusion, streptavidin-HRP, OD 450 nm.

T2 sequence (P31016 other isoform, or with tags, fused parts or gaps): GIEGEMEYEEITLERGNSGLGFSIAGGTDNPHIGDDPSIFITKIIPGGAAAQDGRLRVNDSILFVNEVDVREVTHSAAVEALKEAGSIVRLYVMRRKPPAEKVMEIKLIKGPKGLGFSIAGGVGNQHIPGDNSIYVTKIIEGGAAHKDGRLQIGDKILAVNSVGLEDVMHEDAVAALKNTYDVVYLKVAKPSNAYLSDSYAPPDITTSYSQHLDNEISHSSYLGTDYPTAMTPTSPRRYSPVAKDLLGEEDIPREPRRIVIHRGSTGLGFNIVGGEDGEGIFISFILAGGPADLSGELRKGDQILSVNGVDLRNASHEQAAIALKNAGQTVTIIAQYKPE

As for Biotin-HKAEIHAQPSDKERLTSDA (also called CD49F (Aform, alpha6)) [CD49F C-terminal peptide AA12L, biotinylated], the binding result in test [1] is recorded as “no binding”; in [2], “no binding”; in [3] it was “binds”.

B1: CC CKR-4 C-terminal peptide AA44L (peptide)
peptide: Biotin-DTPSSSYTQSTMDHDLHDAL
notes: Only the last four residues are seen in the excerpts
On to B1, for which the binding result in [1], in test [4] and in test [5] was “no binding” each time.

B2: CC CKR-2 C-terminal peptide AA42L (peptide)
peptide: Biotin-GKGKSIGRAPEASLQDKEGA
notes: as for B1
Regarding B2, the binding result in [1], in test [4] and in test [5] was “no binding” in each case.

B3: CD5 C-terminal peptide AA49L (peptide)
peptide: Biotin-SMQPDNSSDSDYDLHGAQRL
notes: as for B1
In the case of B3, the binding result in test [1], in [2] and in [6] was “no binding” each time.

As for Biotin-KDSRPSFVGSSSGHTSTTL (also called CDW128E (IL8RB)) [CDW128B (IL8RB) C-terminal peptide AA29.2L, biotinylated], the binding result in [1] is recorded as “no binding”; in test [7] it was “binds”; in test [8], “binds”; in [3], “binds”.

B4: PAG C-terminal peptide AA58L, biotinylated (peptide)
peptide: Biotin-KENDYESISDLQQGRDITRL
notes: also called Phosphoprotein Associated with GEMs
With B4, the binding result in test [1] is “no binding”; in test [2], “no binding”; in test [6], “no binding”; in test [7] it was “binds”.

B5: CC CKR-3 C-terminal peptide AA43L (peptide)
peptide: Biotin-LERTSSVSPSTAEPELSIVF
notes: as for B1
Turning to B5, the binding result in test [1], in test [2] and in [6] was “no binding” each time.

Regarding Biotin-ENLAPVTTFGKTNGYIA (also called CD148 (DEP-1)) [CD148 C-terminal peptide AA19L, biotinylated], the binding result in test [1], in test [2] and in [6] was “no binding” throughout.

B6: CDw137 (4-1BB ILA) C-terminal peptide AA21L (peptide)
peptide: Biotin-QEEDGCSCRFPEEEEGGCEL
modifications: cysteine pairing not given here
notes: Marked (S), sticky peptide with high background; also called CDw137 (4-1BB ILA) (S)
Turning to B6, the binding result in [1], in test [2] and in [6] was “no binding” in each case.

Biotin-SSKSKSSEESQTFFGLYKL (not fully specified, also called FasLigand; Fas ligand) [FasL C-terminal peptide AA23L-M, biotinylated]: the binding result in test [1], in [2] and in [6] was “no binding” throughout.

B7: CD62E C-terminal peptide AA48L (peptide)
peptide: Biotin-SSSQSLESDGSYQKPSYIL
notes: as for B1
On to B7, for which the binding result in test [1], in [2] and in [6] was “no binding” throughout.

Consider Biotin-KKGTYLTDETHREVKFTSL [CD46 (Form 1) C-terminal peptide AA10L, biotinylated], for which the binding result was “no binding” in test [1], “no binding” in [6], “binds” in [7] and “binds” in test [9].

Take Biotin-YSATYSELEDPGEMSPPIDL (also called FceRlb; FcεRβI) [FceRIb C-terminal peptide AA25L, biotinylated]: the binding result in test [1], in test [4] and in [5] was “no binding” each time.

Biotin-DLGNMEENKKLEENNHKTEA (also called CD166 (CD6L)) [CD166 C-terminal peptide AA20L, biotinylated]: the binding result in test [1], in test [6] and in test [4] was “no binding” each time.

In the case of Biotin-AWDDSARAAGGQGLHVTAL [LPAP C-terminal peptide AA30L, biotinylated], the binding result in test [1] is “no binding”; in test [2], “no binding”; in [6], “no binding”; in test [7] it was “binds”.

B8: V-gated Ca2+ channel C-terminal peptide AA46L (peptide)
peptide: Biotin-SSGGRARHSYHHPDQDHWC
notes: Marked (S), sticky peptide with high background; also called V-gated Ca2+ channel (S)
As for B8, the binding result in [1], in test [2] and in [6] was “no binding” in each case.

As for Biotin-ISKATPALPTVSISSSAEV (also called AA1L-R) [Clasp-1 C-terminal peptide AA1L, biotinylated], the binding result in test [1] and in [6] was “no binding” in each case.

As for Biotin-QATSENGHSARQHVVADTEL [CD34 C-terminal peptide AA7L, biotinylated], the binding result in [1] and in [6] was “no binding” in each case.

Take Biotin-QFMTADETRNLQNVDMKIGV (also called CD44 (long form)) [CD44 C-terminal peptide AA9L, biotinylated]: the binding result in test [1], in test [2] and in test [6] was “no binding” in each case.

B9: CD114 (G-CSFR) C-terminal peptide AA27L (peptide)
peptide: Biotin-LNFPLLQGIRVHGMEALGSF
notes: as for B1
On to B9, for which the binding result in test [1], in test [2] and in [6] was “no binding” throughout.

B10: CC CKR-1R C-terminal peptide AA41L (peptide)
peptide: Biotin-LERVSSTSPSTGEHELSAGF
notes: as for B1
Take B10: the binding result in test [1], in test [4] and in test [5] was “no binding” throughout.

As to Biotin-LASKSAEEGKQIPDSLSTDL [DOCK2 C-terminal peptide AA40L, biotinylated], the results for the binding result in [1], in test [6] and in test [8] were “no binding”, “no binding” and “binds”, respectively.

Biotin-SPQPDSTDNDDYDDISAA [CD6 C-terminal peptide AA6L, biotinylated]: the binding result in test [1] was “no binding”; in [2], “no binding”; in test [3], “binds”.

Take Biotin-TSGTGHNQTRALRASESGI (also called CD97 (CD55L)) [CD97 C-terminal peptide AA14L, biotinylated]: the binding result in test [1] is “no binding”; in test [4], “no binding”; in [3] it was “binds”.

Take Biotin-ARHRVTSYTSSSVNVSSNL [CDW128A (IL8RA) C-terminal peptide AA29.1L, biotinylated]: the binding result in test [1], in test [4] and in test [5] was “no binding” in each case.

B11: Mannose receptor C-terminal peptide AA31L (peptide)
peptide: Biotin-GTSDMKDLVGNIEQNEHSVI
notes: as for B1
As for B11, the binding result in [1], in test [2] and in test [6] was “no binding” in each case.

Biotin-PSWRRSSLSESENATSLTTF (also called CXCR5) [BLR-1 C-terminal peptide AA45L, biotinylated]: the binding result in [1], in [4] and in test [5] was “no binding” in each case.

For the molecule Biotin-CAISGTSSDRGYGSPRYAEV (also called AA3L-V) [Clasp-4 C-terminal peptide AA3L, biotinylated], the binding result in test [1] was “no binding”.
